Assay results taken from article PMC13237374.

Target: human medin (human) (UniProt Q08431)
Assay: thioflavin T aggregation kinetics

Question: With “human medin (from UniProt Q08431 268-317) (peptide)” as the substance, how does the critical concentration of aggregation read?
Answer: The critical concentration of aggregation was 14 nM.

Question: And the critical monomer concentration for aggregation?
Answer: The critical monomer concentration for aggregation was 10 to 25 nM.

Question: What about the elongation rate constant k+ (monomer addition to fibril ends) of the same substance?
Answer: The elongation rate constant k+ (monomer addition to fibril ends) was 5e+07 M⁻¹ s⁻¹.
